In PMC6983858:

Assays:
[1] = target: full-length human neurofibromin (His6-tev-NF1, 2–2818) (human) (UniProt P21359); experiment: SEC-MALS; single purified proteins; Superose-6 Increase or Superdex S-200 10/300 GL, Wyatt Heleos and Optilab T-Rex; BSA as standard
[2] = target: full-length human neurofibromin (His6-tev-NF1, 2–2818) (human) (UniProt P21359); experiment: SAXS + SANS; full-length neurofibromin in solution, SAXS at 0.5 and 1.0 mg/ml, SANS at 1 mg/ml, 20 °C; molar mass from scattering
[3] = target: full-length human neurofibromin (His6-tev-NF1, 2–2818) (human) (UniProt P21359); experiment: AUC; sedimentation velocity and equilibrium of full-length neurofibromin, 1.2 μM to 25 nM, 20 °C, 20 mM HEPES pH 7.4, 300 mM NaCl, 1 mM TCEP; dimer to monomers

stoichiometry N [1]: 2
stoichiometry N [2]: 2
Kd [3]: < 1 nM
Substance: full-length human neurofibromin (His6-tev-NF1, 2–2818), P21359-2 2-2818
